Reference: IntAct's records for PubMed 23452855

B1: F-box/LRR-repeat protein 21 (Mus musculus), Q8BFZ4 (parent)
chain: MKRNNFSAVNKVVQSSPVVKQPKRGLCSSLRQTHALSVLLDWGTLPHHVILQIFQYLPLIDRARASSVCRRWNEVFHIPDLWRKFEFELNQSATSYFKSTHPDLIQQIIKKHAAHLQYVSFKVDSSTESAEAACDILSQLVNCSIQTLGLISTAKPSFMNVPKSHFVSALTVVFVNSKSLSSIKIEDTPVDDPSLKILVANNSDTLRLLKMSSCPHVSSDGILCVADHCQGLRELALNYYILSDEILLALSSETHVNLEHLRIDVVSENPGQIKFHSIKKRSWDALIKHSPRVNVVMYFFLYEEEFEAFFKEETPVTHLYFGRSVSRAILGRIGLNCPRLIELVVCANGLLPLDSELIRIAKHCKNLTSLGLSECEVSCSAFVEFVRLCGRRLTQLSIMEEVLVPDDRYTPDEVHTEVSKHLGRVWFPDVMPIW
partner: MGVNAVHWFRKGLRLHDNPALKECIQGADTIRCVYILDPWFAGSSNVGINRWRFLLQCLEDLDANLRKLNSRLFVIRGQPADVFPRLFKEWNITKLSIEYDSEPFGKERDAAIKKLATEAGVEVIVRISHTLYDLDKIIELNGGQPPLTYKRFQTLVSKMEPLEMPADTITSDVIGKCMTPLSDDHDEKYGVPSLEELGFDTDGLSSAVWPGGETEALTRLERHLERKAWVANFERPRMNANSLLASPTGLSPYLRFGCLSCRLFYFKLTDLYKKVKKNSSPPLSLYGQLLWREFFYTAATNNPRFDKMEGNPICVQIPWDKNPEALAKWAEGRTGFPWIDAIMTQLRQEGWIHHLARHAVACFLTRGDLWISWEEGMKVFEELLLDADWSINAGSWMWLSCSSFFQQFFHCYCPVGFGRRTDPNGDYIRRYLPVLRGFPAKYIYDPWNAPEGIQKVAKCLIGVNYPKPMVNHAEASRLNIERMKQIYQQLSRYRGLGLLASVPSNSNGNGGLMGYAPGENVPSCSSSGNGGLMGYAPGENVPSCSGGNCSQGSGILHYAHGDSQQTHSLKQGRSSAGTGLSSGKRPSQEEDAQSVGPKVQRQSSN

Variants of: B1
Settings: with cry1_mouse Cry1, P97784

effect of a mutation on the interaction	Variant
decreasing interaction strength	MKRNNFSAVNKVVQSSPVVKQPKRGLCSSLRQTHALSVLLDWGTLPHHVILQIFQYLPLIDRARASSVCRRWNEVFHIPDLWRKFEFELNQSATSYFKSTHPDLIQQIIKKHAAHLQYVSFKVDSSTESAEAACDILSQLVNCSIQTLELISTAKPSFMNVPKSHFVSALTVVFVNSKSLSSIKIEDTPVDDPSLKILVANNSDTLRLLKMSSCPHVSSDGILCVADHCQGLRELALNYYILSDEILLALSSETHVNLEHLRIDVVSENPGQIKFHSIKKRSWDALIKHSPRVNVVMYFFLYEEEFEAFFKEETPVTHLYFGRSVSRAILGRIGLNCPRLIELVVCANGLLPLDSELIRIAKHCKNLTSLGLSECEVSCSAFVEFVRLCGRRLTQLSIMEEVLVPDDRYTPDEVHTEVSKHLGRVWFPDVMPIW [G149E]
